Experimental data: US20250034594A1, “RNA-GUIDED GENOME RECOMBINEERING AT KILOBASE SCALE” (THE BOARD OF TRUSTEES OF THE LELAND STANFORD JUNIOR …, priority 2021, published 2025)

Experiments:
Type in all cases: cell-based
[1] = system: gene editing with Cas9 and dCas9; assay: Screen of 322 new SSAP proteins, activity across all experiments (Cas9 and dCas9, Table 5); parameters: scale not given here
Description: (§1) 322 new SSAP proteins were identified from sequence data, synthesized, and screened for activity with Cas9 and dCas9. Gene editing activities are shown below in Table 5, followed by amino acid sequences of the proteins.

gene editing with Cas9 = assay: Screen of 322 new SSAP proteins, gene editing activity with Cas9 (Table 5); parameters: Cas9 with SSAP activity: scale not given here
Description: as §1

gene editing with dCas9 = assay: Screen of 322 new SSAP proteins, gene editing activity with dCas9 (Table 5); parameters: dCas9 with SSAP activity: scale not given here
Description: as §1

Molecule | Activity across all experiments [1] | Cas9 with SSAP activity (gene editing with Cas9) | Cas9 with SSAP activity (normalized) (gene editing with Cas9) | dCas9 with SSAP activity (gene editing with dCas9) | dCas9 with SSAP activity (normalized) (gene editing with dCas9)
SSAP_285: SEQ ID NO: 454; Chitinophaga lutea (protein, listed as Chitinophaga lutea) SNVNAPAAPVKSKIEVLKDIMNAPSVQEQFQNALRENSGVFVASVIDLFNSDTYLQNCEPKQVVMECLKAATLKLPINKNLGFAYVVPYKSNGKQIPQFQIGYKGYIQLAMRTGQYRIINADKVYEGEYRTKNKLTGEFDLSGTATSETVVGYFAHIEMLNGFAKTLYMTKEKVAAHAKKYSKSFGKETSPWHTEFDAMALKTVLRNLLSHYGYLSVEMMGAMNADIESDQVGSEVSQTINDKANKQEMTFDDAEVVDDDEKEQNPI | −2.441 | −1.178 | −0.366 | −3.704 | −0.608
SSAP_225: SEQ ID NO: 394; Actinocrispum wychmicini (protein, listed as Actinocrispum wychmicini) SQTVTAAVAQRDNGAQALIAKYRTDFAQVLPSHLRPTTFVRLSQGLLRRNVKLAEAAERNPASFLAALLECARLGHDPGTDQFALVPFNDRKRNTVEVVGIEQYQGVIERMYRAGAVRSVKAEVVRAADPFEYAPDVMDRPGHKPNWFADRGELIGVYAYAEFFDGSTSRVVMMNRETVMAHKAKSRGATSEDSPWQAWEESMWLKTAVHELEKWVPTSSEDRRAARDGTADPAPVEVPRVADEVLDADLVEDDHADHPTATPTGDVR | −2.204 | −0.830 | −0.252 | −3.577 | −0.602
SSAP_133: SEQ ID NO: 302; Lacrimispora celerecrescens (protein, listed as Lacrimispora celerecrescens) SDVKQELEKRAAGGGSQSQSVKLTKNMTIVDMVKALEPEIKRALPSILTPERFTRMALSAINNTPKLGECTPMSFIAALMNAAQLGLEPNTPLGQAYLIPYKNKGVLECQFQLGYRGLIDLAYRNDRMQSIEAQVVYENDEFSYELGLHPSLTHRPSFDEPGEIRAFYAIFRLDNGGFRFEVMSKSYVDAYATKYSKAFTSDFSPWKNNYEGMAKKTVIKQLLKYAPIKSDFQKAITLDETVKTQLSIDMSEIRNECLPDTSENSEVA | −4.276 | −4.946 | −1.095 | −3.605 | −0.658
SSAP_267: SEQ ID NO: 436; Clostridium combesii (protein, listed as Clostridium combesii) ANTKAIVLQETANNLNTLLKAKVKALPKGFNETRFLQNCMTVLQDTRNIEKCNSVSVARTMLKGAFLGLDFFSKECYAIPYNDYKTGKCHLEFQTDYKGERKLMKQYSVRPIKDIYAKVVREGDKFEEIIEKGIPTINFRPKPFSNEKIIGVFAVVLFEDGGLLYETMSVEDVEKIKVGFAKRDKEGNYSKAWTATPEEMYKKTVIRRLRKSVELEFDSVEQQKTYEEASEFDVKRDEEVKEEASPFENVDFEEAEEGNTIEAKQE | −1.897 | −0.224 | −0.145 | −3.571 | −0.553
SSAP_121: SEQ ID NO: 290; Bacillus sp. JAS24-2 (protein, listed as Bacillus sp.) ATNKDVKNQLANRKASAPVTTEQTVEAYMKKMGPKMAEVLPKHMDMDRMSRIALTTIRTNPKLLECSVPSLMGAVMSAVQLGLEPGLLGHCYILPYKSEATFIIGYKGMIDLARRSGHIQSIYAHAVYENDEFEYELGLHPQLKHKPSFGDRGEFIGAYAVAHFKDGGHQMEFMPKSEIEKRRGRSASANSNYSPWKTDYEEMAKKTVVRYMFKYLPISIEVQSQAQQDEVVRKDITEEPEFIEVEQQTEGDGQGDFVIEGE | 0.692 | −0.279 | −0.275 | 1.664 | 1.531
SSAP_108: SEQ ID NO: 277; Rummeliibacillus stabekisii (protein, listed as Rummeliibacillus stabekisii) ATTTELKEQMKQQAPAQTKKPKTIEDYMKQMAPAMAEALPKHMSVDRLTRLAMTTIRTTPALRQADVSSLLGAVMQAAQLGLEPGLLGQCYLLPFKNKKKAITEVQFIIGYKGMIDLARRSGHIQSIYSHAVFENDVFEYELGLEPKLKHTPTMSTDKGAFIGAYAVAHFKDGGHQFEFMSKADIEKRKGRSKAANSDYSPWLTDYEEMAKKTVIRHMWKYLPISVEMQEQVAYDEGVGRSIKDVTPEEDVFVQAPDEILEAEATEA | −1.807 | 0.069 | 0.068 | −3.682 | −0.539
SSAP_1: SEQ ID NO: 172 (protein) ATNESLKNQLSTKKETGLGSAGNTIKGLMNSPAIKKRFEEVLKQRAPQYMSSIVNLVNSDINLKKCDQMSVVASCMVAATLDLPVDKNLGYAWVVPYGNKAQFQLGYKGYVQLALRTGQYKSINVIEIHEGELIDWNPLTEELKIDFSKKESDAVIGYAGYFELLNGFKKSTYWTKEQITKHKNKFSKSDFGWKKDFDAMARKTVLRNMLSKWGILSIEMQNAYTADQGIIKNEIIETGEVKENIEYIEADFESYEDNSIEEGGANE | −4.270 | −4.919 | −0.814 | −3.622 | −0.496
SSAP_21: SEQ ID NO: 190; Cellulosilyticum lentocellum (protein, listed as Cellulosilyticum lentocellum) SDKKELVLKETHSRLNQLLATKMEAMPKDFNQTRFLQNCMTVLQDTKGIENCHPVSIARTLLKGAFLGLDFFQRECYAIPYGGELQFQTDYKGETKMAKKYSIRDIKDIYAKVVRKGDEFKEEIVAGQQVVDFKPLPFNDAEIIGAFAVVLYQDGGMEYETMSTKQIEGIRDNFSKMKNGLMWTKTPEEAYKKTVLRRLTKKIEKDFASIDQAKAYEESSDMQFKQDEQKQDAKDPFADAVDVEFTEETEGQVRLDGEADGAK | −2.192 | −0.774 | −0.320 | −3.610 | −0.537
SSAP_126: SEQ ID NO: 295; Marispirochaeta aestuarii (protein, listed as Marispirochaeta aestuarii) RTDGTKEAGAAATAPTEGKAPAKAHKPADTIGAMIEKLKPQIERALPKHVTPDRMARMALTAIRNNPKLGQAEAVSLMGSIIQASQLGLEPNTPLGQCYIIPYNSKNGMQAQFQMGYKGIVDLAHRSGQYRQLTAHPVDEADEFRYSYGLNPDLVHVPAEKPSGKITHYYAVYHLTNGGFDFRVWSREKVEAHAKQYSKSFSSGPWQTNFDQMACKTVMIDLLRYAPKSVEIAKATSADNRTHTINPEDPDLNIDTIDGDFELEGEER | −3.591 | −3.406 | −0.596 | −3.777 | −0.714
SSAP_318: SEQ ID NO: 487; Shewanella morhuae (protein, listed as Shewanella morhuae) QTAQVKLSVPHQQVYQDNFNYLSSQVVGHLVDLNEEIGYLNQIVFNSLSTASPLDVAAPWSVYGLLLNVCRLGLSLNPEKKLAYVMPSWSETGEIIMKLYPGYRGEIAIASNFNVIKNANAVLVYENDHFRIQAATGEIEHFVTSLSIDPRVRGACSGGYCRSVLMDNTIQISYLSIEEMNAIAQNQIEANMGNTPWNSIWRTEMNRVALYRRAAKDWRQLIKATPEIQSALSDTEY | −1.849 | 0.045 | 0.060 | −3.743 | −0.597
SSAP_293: SEQ ID NO: 462; Brevibacillus porteri (protein, Brevibacillus porter, Brevibacillus porteri) ADQNKLVVIYNNLEKLLDSKREAMPTSFNKTRFLQNCMTVLQETKDIELCNPTTVARTMLKGAFLGLDFFNKECYAVVYKGSVEFQTDYKGEVKLAKKYSTKPVREVYAKLVREGDEFAEEINSGNQTINFRPKPFNNEEILGAFAVVNYMDGTMAYDIMSKEEIEKIKENFSRKSKQTGEYSKAWVVTPGEMYKKTVLRRLCKNIDLDFDTIEQRQAFEDAGDVDFNQEVKPAQQSPLNSTVIEAEFEEVSEEQTNAAEQE | −4.559 | −5.271 | −0.961 | −3.846 | −0.563
SSAP_160: SEQ ID NO: 329; Veillonellaceae bacterium DNF00626 (protein, Veillonellaceae bacterium DNF00626) KTTGGLQQQQQQQAQALQNGGTTLKGYLQAMMPEIKKALPTVMTPERFTRIVMTTISTNPALQNCTPQSFLGAVMQAAQLGVEPNTPLGQAYLIPYGNQVQFQLGYKGLIDLAYRSGEVQSLQAHEVYQNDTFEYELGLNPKLKHIPALTNRGDVILYYAVIKFKNGGEGFEVMSKEDVEAFAKSKSKTYGRGPWQTDFDEMAKKTVLKKVLKYAPMKTDFIRAVATDETVKSSVAEQMADLPDETVTIDTEAQVVVDKETGEVKS | −0.901 | 1.888 | 0.942 | −3.690 | −0.763
SSAP_298: SEQ ID NO: 467; Nocardia aurea (protein, listed as Nocardia aurea) SESISAAADAQKVTPRIVLDRHRDAFAQVLPPTINLDRWLRLAESAINASAGLLDIFRRDRGASALKALMKCAQLGHEPGSGLFHLVPKGQAIEGWEDYKGILQRILRSALYAKVVVAPVYANDEYAFDVNVDERPRHKQAAGDRGEPVRAYAYAVHRDGSTSTIAEATPAMIAGAKAKGHKTDASTSPWQNPRAPMHQKVAVRELERFVSTSAVDLRVTGDVTDLIIEEP | −1.640 | 0.510 | 0.610 | −3.790 | −0.578
